# Test results as given in PMC4750992, “A New Mutation, hap1-2, Reveals a C Terminal Domain Function in AtMago Protein and Its Biological Effects in Male Gametophyte Development in Arabidopsis thaliana” (PLoS ONE, 2016).
# B1: MBP-AtMago (natural protein, Arabidopsis thaliana, UniProt O23676 1-150, looked up)
# chain: MAAEEATEFYLRYYVGHKGKFGHEFLEFEFREDGKLRYANNSNYKNDTIIRKEVFLTPAVLKECKRIVSESEILKEDDNNWPEPDRVGKQELEIVLGNEHISFATSKIGSLVDCQSSNDPEGLRIFYYLVQDLKCLVFSLISLHFKIKPI
# notes: AtMago (HAP1), Arabidopsis thaliana, full length protein of 150 amino acids; cDNA amplified from qrt;HAP1/hap1-2 cDNAs; Cloned BamHI/HindIII into pMAL-c2; also called HAP1; HAPLESS1
# Target: T1, His-AteIF4AIII (Arabidopsis thaliana, UniProt Q94A52 1-408)
# T1 construct: AteIF4AIII, Arabidopsis thaliana; cDNA amplified from qrt cDNAs with primers AteIF4AIIIFNdeI and AteIF4AIIIRSalI; Vector pET16b; also called His-eIF4AIII; source: E. coli BL21 (DE3) (pET16b), purified and eluted with ProBond beads
# Test: pull-down; MBP, MBP-AtMago or MBP-AtMagoΔC kept on amylose beads; purified His-Y14 or His-eIF4AIII diluted in Column Buffer (200 mM NaCl, 1 mM EDTA, 20 mM Tris-HCl, pH 7.4), 300 μL, on ice 1 hour; three washes; Western blot with anti-His or anti-MBP
# Conditions: both partners purified
# T1 sequence (Q94A52 whole entry): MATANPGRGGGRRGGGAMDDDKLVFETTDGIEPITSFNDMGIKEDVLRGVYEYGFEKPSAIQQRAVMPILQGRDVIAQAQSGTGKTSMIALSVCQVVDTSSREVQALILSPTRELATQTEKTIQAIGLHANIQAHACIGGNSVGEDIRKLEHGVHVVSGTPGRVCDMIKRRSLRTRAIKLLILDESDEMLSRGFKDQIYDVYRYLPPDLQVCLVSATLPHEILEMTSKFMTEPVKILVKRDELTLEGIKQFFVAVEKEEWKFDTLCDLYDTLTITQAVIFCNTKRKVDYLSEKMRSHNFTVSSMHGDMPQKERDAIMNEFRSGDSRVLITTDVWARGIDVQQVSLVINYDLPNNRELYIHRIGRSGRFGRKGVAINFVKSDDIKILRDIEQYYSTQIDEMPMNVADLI
binder,measurement,value
B1,binding result,binds
